Molecular target: HSP70 (mouse, endogenous), Q61696
Test: UBQLN2 IP and western blot quantification (primary MEFs)
Details: chain shown with the change; n = 3; read off a plot

Chain of HSP70 (mouse, endogenous), Q61696 (Q61696 whole entry): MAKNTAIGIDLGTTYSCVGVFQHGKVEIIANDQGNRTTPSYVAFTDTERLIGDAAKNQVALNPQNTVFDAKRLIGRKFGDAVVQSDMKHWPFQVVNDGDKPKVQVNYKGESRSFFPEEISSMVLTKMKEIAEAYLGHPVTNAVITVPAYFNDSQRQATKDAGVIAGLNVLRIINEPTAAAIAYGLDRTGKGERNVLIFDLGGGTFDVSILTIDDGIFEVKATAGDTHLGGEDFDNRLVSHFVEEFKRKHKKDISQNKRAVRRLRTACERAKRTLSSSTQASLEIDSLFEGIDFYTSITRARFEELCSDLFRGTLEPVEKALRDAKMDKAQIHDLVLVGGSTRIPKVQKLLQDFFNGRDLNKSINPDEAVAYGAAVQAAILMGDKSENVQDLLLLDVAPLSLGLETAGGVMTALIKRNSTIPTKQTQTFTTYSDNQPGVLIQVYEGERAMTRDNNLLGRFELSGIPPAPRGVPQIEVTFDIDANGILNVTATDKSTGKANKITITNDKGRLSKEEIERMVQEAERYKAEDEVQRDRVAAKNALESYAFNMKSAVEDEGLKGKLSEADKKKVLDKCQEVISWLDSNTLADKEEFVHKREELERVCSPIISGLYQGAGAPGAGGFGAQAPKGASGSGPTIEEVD

B1: UBQLN2 (mouse, endogenous, wild type), Q9QZM0 mP520T (protein)
chain: MAENGESSGPPRPSRGPAAAPGAASPPAEPKIIKVTVKTPKEKEEFAVPENSTVQQFKEAISKRFKSQTDQLVLIFAGKILKDQDTLMQHGIHDGLTVHLVIKSQNRPQGQATTQPSTTAGTSTTTTTTTTAAAPAATTSSAPRSSSTPTTTNSSSFGLGSLSSLSNLGLNSPNFTELQNQMQQQLLASPEMMIQIMENPFVQSMLSNPDLMRQLIMANPQMQQLIQRNPEISHLLNNPDIMRQTLEIARNPAMMQEMMRNQDLALSNLESIPGGYNALRRMYTDIQEPMLNAAQEQFGGNPFATVGSSSTSGEGTQPSRTENRDPLPNPWAPPPTTQTAATTTTTTTTSSGSGSGSSSSSTTAGNTMAAANYVASIFSTPGMQSLLQQITENPQLIQNMLSAPYMRSMMQSLSQNPDMAAQMMLSSPLFTSNPQLQEQMRPQLPNFLQQMQNPETIAAMSNPRAMQALMQIQQGLQTLATEAPGLIPSFAPGVGMGVLGTAITPVGPVTPIGPIGPIVTFTPIGPIGPIGPTGPASSPGSTGTGIPPATTVSSSAPTETISPTSESGPNQQFIQQMVQALTGGSPPQPPNPEVRFQQQLEQLNAMGFLNREANLQALIATGGDINAAIERLLGSQPS
B1 showed a ratio to parent of 0.38.
